According to patent publication US20170128490A1:

Target: RGD-recognizing receptors (on monocytes)
Assay: cell-based or functional assay

Work on RGDS [small RGD peptides, containing the amino-acid sequence Arg-Gly-Asp-Ser] yielded a long-duration monocyte-platelet interactions (video analysis, flow) of 44 % decrease.
